# In paper PMC8280106 (2021):
# B1: extracellular domain of CD147 (CD147^ECD) [human] / Trefoil factor 3 (TFF3), recombinant mature form (residues 22-80) [human] (parent complex)
# chain 1: AAGTVFTTVEDLGSKILLTCSLNDSATEVTGHRWLKGGVVLKEDALPGQKTEFKVDSDDQWGEYSCVFLPEPMGTANIQLHGPPRVKAVKSSEHINEGETAMLVCKSESVPPVTDWAWYKITDSEDKALMNGSESRFFVSSSQGRSELHIENLNMEADPGQYRCNGTSSKGSDQAIITLRVRSH
# chain 2: EEYVGLSANQCAVPAKDRVDCGYPHVTPKECNNRGCCFDSRIPGVPWCFKPLQEAECTF
# Variants of: B1
# Assay: SPR (Biacore); value read at end of injection, ~120 s; concentrations not given; read off a plot
row,Variant,response
1,chain 1 R33A,~2 Ru
2,chain 1 AAGTVFTTVEDLGSKILLTCSLNDSATEVTGHRWLKGGVVLKEDALPGQKTEFKVDSDDQWGEYSCVFLPEPMATANIQLHGPPRVKAVKSSEHINEGETAMLVCKSESVPPVTDWAWYKITDSEDKALMNGSESRFFVSSSQGRSELHIENLNMEADPGQYRCNGTSSKGSDQAIITLRVRSH [chain 1 G74A],~4.3 Ru
3,chain 1 AAGTVFTTVEDLGSKILLTCSLNDSATEVTGHRWLKGGVVLKEDALPGQKTEFKVDSDDQWGEYSCVFLPEPMGTANIQLHGPPRVKAVKSSEHINEGETAMLVCKSESVPPVTDWAWYKITDSEDKALMNGSESRFFVSSSQGASELHIENLNMEADPGQYRCNGTSSKGSDQAIITLRVRSH [chain 1 R145A],~8.7 Ru

# Second part, the variant after the results:
row,response,Variant
1,~4.7 Ru,chain 1 AAGTVFTTVEDLGSKILLTCSLNDSATEVTGHRWLKGGVVLKEDALPGQKTEFKVDSDDQWGEYSCVFLPEPMGTANIQLHGPPRVKAVKSSEHINEGETAMLVCKSESAPPVTDWAWYKITDSEDKALMNGSESRFFVSSSQGRSELHIENLNMEADPGQYRCNGTSSKGSDQAIITLRVRSH [chain 1 V110A]
2,~14 Ru,chain 1 AAGTVFTTVEDLGSKILLTCSLNDSATEVTGHRWLKGGVVLKEDALPGQKTEFKVDSDDQWGEYSCVFLPEPMGTANIQLHGPPRVKAVKSSEHINEGEAAMLVCKSESVPPVTDWAWYKITDSEDKALMNGSESRFFVSSSQGRSELHIENLNMEADPGQYRCNGTSSKGSDQAIITLRVRSH [chain 1 T100A]
